In publication PMC11718114:
Changes are numbered by the printed parent chain. Numbers in names are those of the source.

B1: RRAS2 (wild type), P62070 F75A (protein)
chain: MAAAGWRDGSGQEKYRLVVVGGGGVGKSALTIQFIQSYFVTDYDPTIEDSYTKQCVIDDRAARLDILDTAGQEEAGAMREQYMRTGEGFLLVFSVTDRGSFEEIYKFQRQILRVKDRDEFPMILIGNKADLDHQRQVTQEEGQQLARQLKVTYMEASAKIRMNVDQAFHELVRVIRKFQ
B2: RRAS2 (wild type), P62070 E74A (protein)
chain: B1 chain with E74A, A75F
B3: RRAS2 (wild type), P62070 M78A (protein)
chain: B1 chain with A75F, M78A

biological target: PI3Kα-RBD (PIK3CA-RBD(157-289)), P42336; assay: ITC; conditions: chain shown with the change;; parent: est. 8.0 µM; read off a plot

For B1, which Kd is on record?
The Kd was 21 µM.

Which Kd does the source give for B2 here?
The Kd was 12 µM.

How did the Kd turn out when B3 was run?
Its Kd is 130 µM.
